Assay results as given in article PMC9122904, “Insights into the client protein release mechanism of the ATP-independent chaperone Spy” (Nature Communications, 2022).
Where a chain is given by its changes, count along the chain named. In names and notes the source's numbering stands.

Legend:
Assay in all cases: BLI; Octet RED96; client biotinylated and loaded on streptavidin sensors; Spy or Spy variant in solution at 0.25, 0.5, 1, 1.5 and 2 μM; 40 mM HEPES, 150 mM NaCl, pH 7.5; Kd calculated as koff/kon
Details in all cases: both partners purified
[1] = target: T1, Spy_(29-124) R43D (UniProt P77754 52-147, R43D)
T1 construct: source: E. coli BL21 (DE3), purified (Ni-NTA, cation exchange, SEC); not shown: His6, N-terminal, cleaved; SUMO, N-terminal, cleaved
T1 sequence (looked up): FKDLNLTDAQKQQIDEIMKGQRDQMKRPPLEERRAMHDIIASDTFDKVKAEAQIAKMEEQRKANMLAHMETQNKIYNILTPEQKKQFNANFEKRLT

[2] = target: T2, Spy_(29-124) R61D R62D (UniProt P77754 52-147, R61D | R62D)
T2 construct: source: E. coli BL21 (DE3), purified (Ni-NTA, cation exchange, SEC); not shown: His6, N-terminal, cleaved; SUMO, N-terminal, cleaved
T2 sequence (looked up): T1 sequence (looked up) with D15R, R33D, R34D

[3] = target: T3, Spy_(29-124) H96D (UniProt P77754 52-147, H96D)
T3 construct: source: E. coli BL21 (DE3), purified (Ni-NTA, cation exchange, SEC); not shown: His6, N-terminal, cleaved; SUMO, N-terminal, cleaved
T3 sequence (looked up): T1 sequence (looked up) with D15R, H68D

[4] = target: T4, Spy_(29-124) R50D (UniProt P77754 52-147, R50D)
T4 construct: source: E. coli BL21 (DE3), purified (Ni-NTA, cation exchange, SEC); not shown: His6, N-terminal, cleaved; SUMO, N-terminal, cleaved
T4 sequence (looked up): T1 sequence (looked up) with D15R, R22D

[5] = target: T5, Spy_(29-124) K121D R122D (UniProt P77754 52-147, K121D | R122D)
T5 construct: source: E. coli BL21 (DE3), purified (Ni-NTA, cation exchange, SEC); not shown: His6, N-terminal, cleaved; SUMO, N-terminal, cleaved
T5 sequence (looked up): T1 sequence (looked up) with D15R, K93D, R94D

[6] = target: T6, Spy_(29-124) R89D (UniProt P77754 52-147, R89D)
T6 construct: source: E. coli BL21 (DE3), purified (Ni-NTA, cation exchange, SEC); not shown: His6, N-terminal, cleaved; SUMO, N-terminal, cleaved
T6 sequence (looked up): T1 sequence (looked up) with D15R, R61D

[7] = target: T7, Spy_(29-124) K54D R55D (UniProt P77754 52-147, K54D | R55D)
T7 construct: source: E. coli BL21 (DE3), purified (Ni-NTA, cation exchange, SEC); not shown: His6, N-terminal, cleaved; SUMO, N-terminal, cleaved
T7 sequence (looked up): T1 sequence (looked up) with D15R, K26D, R27D

[8] = target: T8, Spy D26E (UniProt P77754 24-161, D26E)
T8 construct: source: E. coli BL21 (DE3), purified (Ni-NTA, cation exchange, SEC); not shown: His6, N-terminal, cleaved; SUMO, N-terminal, cleaved
T8 sequence (looked up): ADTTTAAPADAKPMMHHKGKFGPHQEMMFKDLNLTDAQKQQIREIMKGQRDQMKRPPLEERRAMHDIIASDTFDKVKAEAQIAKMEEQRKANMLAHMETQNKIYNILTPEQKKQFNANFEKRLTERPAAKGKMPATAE

[9] = target: T9, Spy D26R (UniProt P77754 24-161, D26R)
T9 construct: source: E. coli BL21 (DE3), purified (Ni-NTA, cation exchange, SEC); not shown: His6, N-terminal, cleaved; SUMO, N-terminal, cleaved
T9 sequence (looked up): T8 sequence (looked up) with E26R

[10] = target: T10, Spy D26K (UniProt P77754 24-161, D26K)
T10 construct: source: E. coli BL21 (DE3), purified (Ni-NTA, cation exchange, SEC); not shown: His6, N-terminal, cleaved; SUMO, N-terminal, cleaved
T10 sequence (looked up): T8 sequence (looked up) with E26K

kon [1]: 196000 M⁻¹ s⁻¹ | kon [2]: 74000 M⁻¹ s⁻¹ | kon [3]: 185000 M⁻¹ s⁻¹ | kon [4]: 178000 M⁻¹ s⁻¹ | kon [5]: 188000 M⁻¹ s⁻¹ | kon [6]: 48000 M⁻¹ s⁻¹ | kon [7]: 126000 M⁻¹ s⁻¹ | kon [8]: 306000 M⁻¹ s⁻¹ | kon [9]: 287000 M⁻¹ s⁻¹ | kon [10]: 317000 M⁻¹ s⁻¹
B1: Im7 H40W L53A I54A (natural protein)
chain: MELKNSISDYTEAEFVQLLKEIEKENVAATDDVLDVLLEWFVKITEHPDGTDAAYYPSDNRDDSPEGIVKEIKEWRAANGKPGFKQG
modifications: biotin (EZ-link NHS-biotin, 1:1 molar ratio of biotin to protein)
notes: Im7 (colicin E7 immunity protein) with H40W L53A I54A; Spy was made with an N-terminal His6-SUMO tag that was cleaved; also called Im7AAW; partially folded client; source: purified by a similar procedure to Spy
